In patent publication US20230265187A1 one finds max. signal (% of 22G2) and MFI data, which are given here for one molecule.

The target in test [1] is human TIGIT on Jurkat cells (TIGIT/NFAT reporter Jurkat cells, BPS Bioscience #60538; Promega TIGIT Effector Cells) (human) (UniProt Q495A1). The test can be described thus: cell-based or functional assay.
The target is the same in test [2]. In words: flow cytometry, TIGIT/NFAT Jurkat cells, 10 ug/ml. In general terms: In flow cytometry, cells or beads pass a laser one at a time.

Sequence of human TIGIT on Jurkat cells (TIGIT/NFAT reporter Jurkat cells, BPS Bioscience #60538; Promega TIGIT Effector Cells) (human) (Q495A1 22-244): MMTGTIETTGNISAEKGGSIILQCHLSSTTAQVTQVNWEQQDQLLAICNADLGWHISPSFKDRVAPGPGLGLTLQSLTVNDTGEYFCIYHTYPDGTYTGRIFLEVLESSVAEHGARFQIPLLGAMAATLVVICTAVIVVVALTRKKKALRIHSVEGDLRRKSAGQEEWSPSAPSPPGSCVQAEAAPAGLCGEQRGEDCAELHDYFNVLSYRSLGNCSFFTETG

B1: 43586p1.2.F6 (scFv, V domains shown)
VH: EVQLLESGEGLVQPGGSLRLSCAASGFTFTSYLMSWVRQAPGKGLEWVSTITWDGDRTYYADSVKGRFTISRDNSKNTLYLQMNSLRVGDTAVYYCAKHWTVFQYGMDVWGQGTTVTVSS
VL: QSVLTQPASASGTPGQRVTISCSGTISNIETKYVSWYQQLPGTAPKLLIYGNHQRPSGVPDRFSGSKSGTSASLAISGLQSEDEADYYCASWENDLKSWVFGGGTKLTVL
In the case of B1, in test [1], the max. signal (% of 22G2) was 116 % of 22G2. The molecule further yielded an MFI in test [2] of 10700 MFI.
